Source: US20180049457A1, “ENZYMATIC SYNTHESIS OF SOLUBLE GLUCAN FIBER” (E I DU PONT DE NEMOURS AND COMPANY, priority 2014, published 2018)

B1: GTF0459NTnativeT5: T5 C-terminal truncation of GTF0459, SEQ ID NO: 126, strain SG1297 (protein)
chain: INGKQYYVNSDGSVRKNFVFEQDGKSYYFDAETGALATKSQDEFSTEPIKAAVDFSSGNQLYKNDNKSLDQLDTFITADAWYRPKSILKDGKTWTASTEADKRPLLMVWWPDKSTQVNYLNYMQNQGLGAGSFSTNSSQESLNLAAKAVQTKIEERIAREGNTNWLRTSIDQFIKTQPGWNSSTENSSYDHLQGGQLLFNNSKGDTGNRTSYANSDYRLLNRTPTNQSGTRKYFKDNSIGGLEFLLANDIDNSNPAVQAEQLNWLHFMMNIGSIMANDPTANFDGLRVDALDNVDADLLQIASDYFKAVYGVDKSEANAIKHLSYLEAWSANDPYYNKDTKGAQLPIDNALRNALTNLLMRDKNTRMQLGDMTAFMNSSLNPRGANDKNGERMANYIFTRAHDTEAQTIIQRIIRDRINPNLFGYNFTRDEIKKAFEIYNADINTAHKTYASYNLPSVYALMLTNKDSVTRVYYGDLYREDGHYMAKKTPYFDAIDTLLRARIKYVAGGQDMEVKKVGNDGLLTSVRYGKGANNSTDWGTTETRTQGMGVILTNNYDFRLGSNETVTMNMGRAHRNQLYRPLLLTTKDGLATYLNDSDVPSNLLKRTDWNGNLTFNANDVFGVENVQVSGYLGVWVPVGAKANQDARTQPSNRANSDGQVYKSSAALDSQVMYEAFSNFQAFADDQPELYMNRVLAKNTDLLKAWGVTSVGLPPQYVSSKDGTFLDSTIDNGYAFDDRYDMALSQNNKYGSLEDLLNVLRALHKDGIQAIADWVPDQIYNLPGKEVVNATRVNGYGYHQQGYQIVDQAYVANTRTDGTDYQGRYGGAFLDELKAKYPSIFNRVQISNGKQLPTNEKITKWSAKYFNGTNILGRGINYVLRDDKTNQYFNTSANGQLLPTPLRDTGAITSTQVFQRRGQDVYFLRDNQVIKNEFVQDGNGNWYYFGADGKMTKGAQNINSKDYYFFDNGVQLRNALRRASNGYTYYYGLDGAMIKNAFVDFDDKHQ
modifications: T5 C-terminal truncation of GTF0459
B2: GTF0459NTnativeT6: T6 C-terminal truncation of GTF0459, SEQ ID NO: 134, strain SG1298 (protein)
chain: INGKQYYVNSDGSVRKNFVFEQDGKSYYFDAETGALATKSQDEFSTEPIKAAVDFSSGNQLYKNDNKSLDQLDTFITADAWYRPKSILKDGKTWTASTEADKRPLLMVWWPDKSTQVNYLNYMQNQGLGAGSFSTNSSQESLNLAAKAVQTKIEERIAREGNTNWLRTSIDQFIKTQPGWNSSTENSSYDHLQGGQLLFNNSKGDTGNRTSYANSDYRLLNRTPTNQSGTRKYFKDNSIGGLEFLLANDIDNSNPAVQAEQLNWLHFMMNIGSIMANDPTANFDGLRVDALDNVDADLLQIASDYFKAVYGVDKSEANAIKHLSYLEAWSANDPYYNKDTKGAQLPIDNALRNALTNLLMRDKNTRMQLGDMTAFMNSSLNPRGANDKNGERMANYIFTRAHDTEAQTIIQRIIRDRINPNLFGYNFTRDEIKKAFEIYNADINTAHKTYASYNLPSVYALMLTNKDSVTRVYYGDLYREDGHYMAKKTPYFDAIDTLLRARIKYVAGGQDMEVKKVGNDGLLTSVRYGKGANNSTDWGTTETRTQGMGVILTNNYDFRLGSNETVTMNMGRAHRNQLYRPLLLTTKDGLATYLNDSDVPSNLLKRTDWNGNLTFNANDVFGVENVQVSGYLGVWVPVGAKANQDARTQPSNRANSDGQVYKSSAALDSQVMYEAFSNFQAFADDQPELYMNRVLAKNTDLLKAWGVTSVGLPPQYVSSKDGTFLDSTIDNGYAFDDRYDMALSQNNKYGSLEDLLNVLRALHKDGIQAIADWVPDQIYNLPGKEVVNATRVNGYGYHQQGYQIVDQAYVANTRTDGTDYQGRYGGAFLDELKAKYPSIFNRVQISNGKQLPTNEKITKWSAKYFNGTNILGRGINYVLRDDKTNQYFNTSANGQLLPTPLRDTGAITSTQVFQRRGQDVYFLRDNQVIKNEFVQDGNGNWYYFGADGKMTKGAQNINSKDYYFFDNGVQLRNALRRASNGYTYYYGLDGAMIKNAFVDFDDKHQQVRAFTTQ
modifications: T6 C-terminal truncation of GTF0459
B3: GTF0459nativeNT: truncated Streptococcus sp. C150 Gtf-S glucosyltransferase, SEQ ID NO: 19, strain SG1273 (protein, listed as Streptococcus sp.)
chain: MINGKQYYVNSDGSVRKNFVFEQDGKSYYFDAETGALATKSQDEFSTEPIKAAVDFSSGNQLYKNDNKSLDQLDTFITADAWYRPKSILKDGKTWTASTEADKRPLLMVWWPDKSTQVNYLNYMQNQGLGAGSFSTNSSQESLNLAAKAVQTKIEERIAREGNTNWLRTSIDQFIKTQPGWNSSTENSSYDHLQGGQLLFNNSKGDTGNRTSYANSDYRLLNRTPTNQSGTRKYFKDNSIGGLEFLLANDIDNSNPAVQAEQLNWLHFMMNIGSIMANDPTANFDGLRVDALDNVDADLLQIASDYFKAVYGVDKSEANAIKHLSYLEAWSANDPYYNKDTKGAQLPIDNALRNALTNLLMRDKNTRMQLGDMTAFMNSSLNPRGANDKNGERMANYIFTRAHDTEAQTIIQRIIRDRINPNLFGYNFTRDEIKKAFEIYNADINTAHKTYASYNLPSVYALMLTNKDSVTRVYYGDLYREDGHYMAKKTPYFDAIDTLLRARIKYVAGGQDMEVKKVGNDGLLTSVRYGKGANNSTDWGTTETRTQGMGVILTNNYDFRLGSNETVTMNMGRAHRNQLYRPLLLTTKDGLATYLNDSDVPSNLLKRTDWNGNLTFNANDVFGVENVQVSGYLGVWVPVGAKANQDARTQPSNRANSDGQVYKSSAALDSQVMYEAFSNFQAFADDQPELYMNRVLAKNTDLLKAWGVTSVGLPPQYVSSKDGTFLDSTIDNGYAFDDRYDMALSQNNKYGSLEDLLNVLRALHKDGIQAIADWVPDQIYNLPGKEVVNATRVNGYGYHQQGYQIVDQAYVANTRTDGTDYQGRYGGAFLDELKAKYPSIFNRVQISNGKQLPTNEKITKWSAKYFNGTNILGRGINYVLRDDKTNQYFNTSANGQLLPTPLRDTGAITSTQVFQRRGQDVYFLRDNQVIKNEFVQDGNGNWYYFGADGKMTKGAQNINSKDYYFFDNGVQLRNALRRASNGYTYYYGLDGAMIKNAFVDFDDKHQQVRAFTTQGTMVVGNLHWSGHHFYFDRETGIQAKDRIVRTDDGKLHYYVAQTGDMGRNVFATDSRTGKRYYFDADGNTVTGSRVIDGKTYYFNQDGSVGTAYSNRADSIIFENGKARYITPAGEIGRSIFVYNPATKAWNYFDKEGNRVTGRQYIDGNLYYFKEDGSQVKGAIVEENGIKYYYEPGSGILASGRYLQVGDDQWIYFKHDGSLAIGQVRADGGYLKYFDKNGIQVKGQTIVEDGHTYYYDADSGALVTSSFAEIAPNQWAYFNTEGQALKGKWTINGKEYYFDQNGIQYKGKAVKVGSRYKYYDENDGQPVTNRFAQIEPNVWAYFGADGYAVTGEQVINGQHLYFDQSGRQVKGAYVTVNGQRRYYDANTGEYIPGR
B4: GTF3808NT: N terminal-only truncated GTF3808 from Streptococcus sp. SR4, SEQ ID NO: 108, strain SG1313 (protein)
chain: INGKQYYVNSDGSVRKNFVFEQDGKSYYFDAETGALATKSQDEFSTEPIKATVDFSSGNQLYKNDDKSLDQLDTFITADAWYRPKSILKDGKTWTASTEADKRPLLMVWWPDKSTQVNYLNYMQNQGLGAGSFSTNSSQESLDQAAKMVQTKIEERIAREGNTNWLRTSIDQFIKTQPGWNSSTENSSYDHLQGGQLLFNNSKGDTGNRTSHANSDYRLLNRTPTNQTGTRKYFKDNSIGGLEFLLANDIDNSNPAVQAEQLNWLHFMMNIGSIMANDPTANFDGLRVDALDNVDADLLQIASDYFKAAYGVDKSEANAIKHLSYLEAWSANDPYYNKDTKGAQLPIDNALRNALTNLLMRDKNTRMQLGDMTAFINSSLNPRGANDKNGERMANYIFTRAHDTEAQTIIQRIIRDRINPNLFGYNFTRDEIKKAFEIYNEDIDKAHKTYASYNLPSVYALMLTNKDSVTRVYYGDLYREDGHYMAKKTPYFDAIDTLLRARIKYVAGGQDMEVKKVGNDGLLTSVRYGKGANNRTDLGTSETRTQGMGVIMTNNYDFRLGSNETVTMNMGRAHRNQLYRPLLLTTKDGIATYLNDSDVPKNLLKRTDWNGNLTFNANDVFGVENVQVSGYLGVWVPYGAKANQDARTQPSNRANSDGQVYKSSAALDSQVMYEAFSNFQAFADDQPELYMNRVLAKNTDLLKAWGITSVGLPPQYVSSKDGTFLDSTIDNGYAFDDRYDMALSQNNKYGSLEDLLNVLRALHKDGIQAIADWVPDQIYNLPGKEVVNATRVNGYGNHQVGYQIIDQAYVANTRTDGTDYQGKYGGAFLDELKAKYPSIFNRVQISNGKQLPTNEKITKWSAKYFNGTNILGRGINYVLRDDKTNQYFNTSANSQLLPTPLRDTGAITSTQVFQRRGQDVYFLRDNQAVKNEFVQDGNGNWYYFGGDGKMTKGAQNINNKDYYFFDNGIQLRNALRRASNGYTYYYGLDGAMVKNAFVDFDDKHKQVRAFTTQGTMVVGNLHWSGHHFYFDRETGIQAKDRVVRTDDGKLHYYVAETGDMGRNVFATDSSTGKRYYFDADGNTVTGSRVIDGKTYYFNQDGSVGTAYSNRADSIIFENGKARYITPAGEIGRSIFVYNPATKAWNYFDKEGNRVTGRQYIDGHLYYFKEDGSQAKGEIIEENGIKYYYEPESGILASGRYLQVGDDQWMYFKQDGSLAIGQVRADHGYLKYFDKNGIQVKGKTVVEDGKTYYYDAHSGALVTSSFAEIAPNQWSYFNTDGQALKGKWTINGKEYYFDENGIQYKGKAIKVGSRYKYYDENDGQPVTNRFAQIEPNVWAYFGADGYAVTGEQVINGQHLYFDQSGRQVKGAYVTVNGQRRYYDANTGEYVPGR
modifications: Streptococcus sp. SR4

Test: GTF activity of strains (PAHBAH assay)
Assay type: biochemical
Conditions: enzyme expressed in B. subtilis host
In short: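 Glucosyltransferase (GTF) activity of the bacterial strains was measured with the PAHBAH assay. The enzymes tested were truncated GTF variants produced in a Bacillus subtilis expression host. Measurements were split across three separate experiments, and each activity value is reported together with the experiment it came from because results varied slightly between experiments.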

| Molecule | GTF activity of strains: Acitivity (Experiment Number 2) [U/mL] | GTF activity of strains: Acitivity (Experiment Number 1) [U/mL] | GTF activity of strains: Acitivity (Experiment Number 3) [U/mL] |
| --- | --- | --- | --- |
| B1 | 52 |  |  |
| B2 |  | 28.5 |  |
| B3 | 39.4 | 26.5 |  |
| B4 |  |  | 34.9 |
